Laboratory results from the DeepSol protein solubility set.

Assay: soluble on expression in E. coli; label from the status in PepcDB or PDB records

| Sequence | soluble on expression in E. coli |
| --- | --- |
| MHHHHHHGGGGGMINKPNQFVNHLSALKKHFASYKELREAFNDYHKHNGDELTTFFLHQFDKVMELVKQKDFKTAQSRCEEELAAPYLPKPLVSFFQSLLQLVNHDLLEQQNAALASLPAAKIIELVLQDYPNKLNMIHYLLPKTKAFVKPHLLQRLQFVLTDSELLELKRFSFFQALNQIPGFQGEQVEYFNSKLKQKFTLTLGEFEIAQQPDAKAYFEQLITQIQQLFLKEPVNAEFANEIIDAFLVSYFPLHPPVPLAQLAAKIYEYVSQIVLNEAVNLKDELIKLIVHTLYEQLDRPVGDEN | soluble |
| MPARRSAARIDFAGSPRPTLGVEWEFALVDSQTRDLSNEATAVIAEIGENPRVHKELLRNTVEIVSGICECTAEAMQDLRDTLGPARQIVRDRGMELFCAGTHPFARWSAQKLTDAPRYAELIKRTQWWGRQMLIWGVHVHVGIRSAHKVMPIMTSLLNYYPHLLALSASSPWWGGEDTGYASNRAMMFQQLPTAGLPFHFQRWAEFEGFVYDQKKTGIIDHMDEIRWDIRPSPHLGTLEVRICDGVSNLRELGALVALTHCLIVDLDRRLDAGETLPTMPPWHVQENKWRAARYGLDAVIILDADSNERLVTDDLADVLTRLEPVAKSLNCADELAAVSDIYRDGASYQRQLRVAQQHDGDLRAVVDALVAELVI | soluble |
| MSLAPRPRILICEDDPDIARLLNLMLEKGGFDSDMVHSAAQALEQVARRPYAAMTVDLNLPDQDGVSLIRALRRDSRTRDLAIVVVSANAREGELEFNSQPLAVSTWLEKPIDENLLILSLHRAIDNMAEGKEGYLTITTDPNSSSVDKLAAALEHHHHHH | soluble |
| MILRIIYTLLNYLSQPVLLLMMWRKTARHTKQTSRLWERYGIYRQLTAPRPQGIVIHAASVGEVIAATPLINAIQTHYPALPITVTTFTQTASERVQAIFANTVSHIYLPFDLPFAVNRFIKFTQPRLFIVIETELWPNLITQTYRQHIPFIIANGRLSARSLKHYQWFNPALQKILNQISMIIAQDQISAERYAQLGFNSQQLTTAGNLKFDLEISEQLRQTIQKTKQTLTLGNRPVWIAGSTHEGEDEIILATHQQLLSEWPDLLLILAPRHPNRFKNVENLLIKSELCYVKRSQQCPLTDHTQVLLADTLGEMMILYGLANIAFVGGSLIKHGGHNPLEPIAFGLPIISGIHTFNFLEIFNKLKAIHGVIEVTNDPADLAQAVNLLLKDPKKYTAIAQAGLSMLKANQGSLQRHLQLLAPYLEKLEHHHHHH | not soluble |
| SEAVRPDSCESGPAAPRAEERPAPEARVHFRVTRFIMEAGVKLGMQSIPIATACTIYHKFFCEINLDAYDLYLVAMSSIYLAGKVEEQHLRTRDIINVSHRYFNPGSEPLELDSRFWELRDSIVQCELLMLRVLRFQVSFQHPHKYLLHYLISLKNWLNRYSWQRTPISVTAWALLRDSYHGGLCLRFQAQHLAVAVLYLALQVYGVEVPAEGEAEKPWWQVFSDDLTKPIIDNIVSDLIQIYTMDTEIP | soluble |
| HGSSTVDELTAAFTGGAATGEGGLTLTAPEIAENGNTVPIEVKAPGAVAIMLLAAGNPEPAVATFNFGPAAADQRAATRIRLAQTQDVIALAKMADGSVVKAQTTVKVTIGGCGG | soluble |
| MGSDKIHHHHHHMSDVYIFCLSMGSPTLNTRVLTNSMELKVGCCGFPVSMKRYFETFDVVEVQKTFYKPPEVKTAEKWRKSAPEDFEFTIKAWQVITHPPSSPTYKKAGIKFENCGFFRPTEVVFMAWEETKKIAKALKAEIIVFQTPKSFRDTAENMENMRAFFSSIDGSFTFCFEPRGWSEESVRAICEELDLVHVVDPFVSKQLYGEICYYRLHGFDYKHKYTDDELEKLLGIVDRDGYVMFNNVHMFDDALRFKKLVEREAKSK | not soluble |
| MDASSGAAADPAEGSAPEGAASGGTGAPNGTDPLDAPNDLGNVPGESAGAGAGAASSGASRSAIMAVTAGGSQGPAVSWGEAADSRSSTWETEGRAAGSLARQAVTRSCSGCGRAGRSGSAEVMRCTTVASESPSKGPRPQAAKTSTEPRENTSLGGPRSVAPRACSGDMKPGVPITEPAAVSAVASTARAMPKSMIRGPSAARITLPGFRSRCTSPQEWMAARPSASPAPSRSTVCSGSGPCASTASCSDGPGT | not soluble |
| MSLNVQGNLFRPLTLPNGLSLENRFVLSPMVTNSSTSEGFVTDDDIAYAVRRAKSAPLQITGAAYITEYGQLFEYGFSVSKDEDIPGLTKLAKAMKSKGAKAVLQLTHAGRFSSHTLARHGYVYGPSPMQLQSPYPHQVKELTHKDILRIIDEYVQATRRAIQAGFDGVEISSAQRLLIQTFFSTFSNQRKDEYGPQTLTNRCRLGLEVFKAVQKVIREEAESDFILGFRATPEETRGSQIGYSIEEFMEFLEKILAIAQVDYLAIASWGHDVFRNTIRSEGVYKGQLVNQVIFEHFGDRVPIMATGGINSASKVFEALQHAHMIGASTPLVVDPEFLQKIKAKCSDQINLRIKVSDLEGLAIPKASFKDIVPLMDYGESEGHHHHHH | soluble |
| MKIAMLGSLGNINRIVVPKLVQAGHDVTVISTSPKRQASIEAIGAHAAIGTMTDVDFLSTTFTDKDVVYLMLSGGIGDDPFEGAVAQAKIWKQAIENAGVTNVVNLSSIGADADEVAGSLHAYNLIEHELRQLDGVNLAFVRPTGFYANLFGNLATIKAEHKIYSSTPAASAQKYVAPEDIASVVYPLIDHTPAGITVKYAFSDTFTGDQFVADLRDALNMPDLQWVQISDEQYQANLTNHGVPVKIAASLVQTSRYQREPEGLYADLNASDTSAGQVKLADFVRTFVVAYNSEGGYQSHTIAD | not soluble |
| MGSDKIHHHHHHMTPLPSFRLSWPSALQRLCHAPAGKHMPAGAYQVHFPRLELVLSNRYHYSHEGCENASLSAQEALFIPAEHWTLPNWCANGEVLHILFDYARIGFSLVRSGPQGVISTHKESMVLAQRGSLNGMLDVLAGLCRDGADPEVLRLQGQALLALLQSLYDEARDSQWQQGGNLFRAICLYISEHLYAPLTREDVALRFSISATHLSRLFRQHLGLGFCEFLSHARLDLAKALLRQGQLPLSRVAARCGYADVNYFHRVFKQRFAMTPCAYRREFA | not soluble |
| MPPANGKKGKKGGAAKAAAPEEDFDAILAEMQLADAKTAAKEATKKDAKGGKGKANGSAAATAAPEEAKQAWQAEIAAMKPIDEQFPDGKFPHGIDESPYYLKGKDGRVATDRESNEEKKALDISYEEVWQDYRRSAEAHRQVRKYVKSWIKPGMTMIEICERLETTSRRLIKEQGLEAGLAFPTGCSLNHCAAHYTPNAGDTTVLQYGDVCKIDYGIHVRGRLIDSAFTVHFDPKFDPLVEAVREATNAGIKESGIDVRLCDVGEIVEEVMTSHEVELDGKSYVVKPIRNLNGHSIAQYRIHAGKTVPIVKGGEQTKMEENEIYAIETFGSTGKGYVHDDMETSHYMKNFELADEKIPLRLQKSKGLLNLIDKNFATLAFCRRWIDRLGETKYLMALKDLCDKGIVDPYPPLCDVKGCYTAQWEHTILMRPTVKEVVSRGDDY | not soluble |
| NCHIFKTKAKESQGASPTLGQSEAYHRQNKPYEQQPYGFGVGKKMTSSSKSKVPIFKSFNLKSYQRNHYYSSKKERKHGSPDIDSLFHETNGASKVRMTDAGKMDTNSQFQEIWEILGKNAYTHKSYSEDPNSCLGSALSDHEEEEEAGKQQQQQQQQQQQQQHYGMTSKSSSPDEEKKNNKEPKRESRVSPEENGEEETGHKQFKLPKTSTFSSGSHDSNLQSPFYNHEYRHYARSKFECKNQFRKSVSPIKEIPATTSANEGWNILRDIIEKLNISNVDDRNKDLLFRRDEIGDKNHSDSIDIENLSIKEPKGMKRRKKDDISLEELFQSLPREKDYFMMDAINDSLESINLFKKPKTTQSHEQGGTFAQAESNRAKFKPLLEQCGITPEI | not soluble |
| MGSDKIHHHHHHVKIALDPTPFHHSHTLLEFPRVVADLGYKYMQMTPHADFIPFYNHPKADDELVGQLNKACKDVGIEIASVLPVLRWSGPDEDAREAAVRYWKRVIQITVDLGVSTINTEFSGRPEKAEESERAFYRSMEELLPIIEREGLDLLIDPHPDDFVEEGLAAIRVIRGLNSKNVGLVYVASHSFHMKNAPLDIMRAAGDKLRLVHVADTMNHHASHGLRYITNPPGNPVRVHQHLKIGDGDVNWEEFFGGLQEIGFLDREDTVMVSSVFAEDENAAEVSRYQLVTMNNYIATAR | not soluble |
